Experimental data: IntAct's records for PubMed 22960633

Columns and labels:
gnat1_human GNAT1 = gnat1_human GNAT1 (UniProt P11488)
arl3_mouse Arl3 = arl3_mouse Arl3 (UniProt Q9WUL7)
arl3_mouse Arl3, sequence (Q9WUL7 whole entry): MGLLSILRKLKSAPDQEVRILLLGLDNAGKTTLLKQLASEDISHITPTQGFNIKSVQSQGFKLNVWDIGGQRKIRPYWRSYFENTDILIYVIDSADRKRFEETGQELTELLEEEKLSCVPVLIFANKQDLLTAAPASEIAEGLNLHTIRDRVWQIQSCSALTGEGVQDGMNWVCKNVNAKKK

gnat1_human GNAT1, sequence (P11488 whole entry): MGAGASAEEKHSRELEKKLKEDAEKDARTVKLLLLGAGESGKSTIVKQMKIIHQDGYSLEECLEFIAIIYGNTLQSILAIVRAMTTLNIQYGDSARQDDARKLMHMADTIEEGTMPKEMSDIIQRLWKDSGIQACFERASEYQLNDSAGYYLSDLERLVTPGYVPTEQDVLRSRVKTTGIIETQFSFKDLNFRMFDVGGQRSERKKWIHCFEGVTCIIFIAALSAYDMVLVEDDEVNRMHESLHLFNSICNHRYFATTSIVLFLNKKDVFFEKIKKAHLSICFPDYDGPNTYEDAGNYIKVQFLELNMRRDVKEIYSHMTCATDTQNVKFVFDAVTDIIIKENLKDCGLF

- effect of a mutation on the interaction (gnat1_human GNAT1): decreasing interaction
- effect of a mutation on the interaction (arl3_mouse Arl3): decreasing interaction
Substance: Protein unc-119 homolog A (Homo sapiens) (from UniProt Q13432) Y194A
